Laboratory results reported in the DeepSol protein solubility set.

Assay: soluble on expression in E. coli; label from the status in PepcDB or PDB records

Sequence | soluble on expression in E. coli
MAFEMAPADPTLDLNMQLTKLGHGLLSGKYSMPATQKDATTGDPRQEGIPPRMFKNVIAASHAEFSSMRQQDALDFFLHLVGKVERASNTTPDLDPSRSFKFGIEEKILCPSGKVGYNKREDCILSLNIPLHEATNKDELEAFHKQKAGKGLEENDMRSSDEIVRPRVPLEACLANFASSEPIEDYYSSALKGMTTAIKTTGLTSFPDYLVLHMRKFVMEEGWVPKKLDVYIDVPDVIDISHMRSKGLQPGEELLPDGVPEEVMESAQPVANEEIVAQLVSMGFSQLHCQKAAINTSNAGVEEAMNWLLSHMDDPDIDAPISHQTSDIDQSSVDTLLSFGFAEDVARKALKASGGDIEKATDWVFNNPNASVSDMDVSSSNSAQTPAQSGLPDGGGKYKLFGIVSHMGTSVHCGHYVAHILKEGRWVIFNDDKVGISTDPPKDMGYVYFFQRLD | soluble
MAFGLPDTAALNKAADQKTSVSMPVRGRLVMNDSGILDVQLVKTNTAGAVKVARAVLDKETGYWGYTLPAVADVPAQTIFVSPADALGANGPLTLSGPVPLPERILHTGDQISAPQATDKTVTPVADDLDFDDIILVFPPESGLKPLYVMYRSPRNMPGTVSGKGLEHHHHHH | soluble
MAFGVLALVHTACENAKYDVIDNLVYINEASTSKTKELTLTEGTTRTSLTVRLVNIINQTIKANLFIDESVLDAYNKKNETNYKMPPKEYISFPESVTIEAGSVSADPVNVDIKSFEAEGGAQYAIPISIKNVEGGIEKSESSSSFLLVLVKPLKQAVPKLTWYNGMHAAPEGAWGLALPNYTLEWWSKVTSKSGNGGYTKNNQAIINSGGLGTELYIRFGDLIYSENGSYKNNFLQVKTMGSQFDTGDPTKGKGLEAQKWYHFAVSYDAASGTTLLYQNGTVVASLSSSIGQPMNIDQFQMISSGEEYFPDFCEMCQVRFWKVTRTVNQIKKSMYTEVDYTDKNLLLYLPMNEGEGATILHDVTGNGHDVEIGNSNLGNENRQKVTWETYSFAQ | not soluble
MAFIHTSLTRLMRFAVDQTKDIIEPLMVTKVLTEFSESENDGLSHYAHYAKFHNYLVPNMAKLAEYSIEERVRVIFGFAAVVSDDFLKQIQREGLVHLDKKKRICKFTSHNGKWKLEGDHSHSARMKRRWSMRVRVVVGLPSLMNFLVEKTKDIIEPMLASAAFREFSESEDGGLPEHAYYNHFHKNVAPNMAKIEEYSIEERVRVMFALAGRVSADFRAQTKGLVELDDGKRISKFTSTDGKLKLEGDHSDSARRKRSAAFYRKTDHHCRSANDSKPRRKNGRQSDSEFSDKSGSDEDDVESAISYGNSPKRARCEKSADPEMHVSSGSDDDEVEDVGGMDEEPVLLPIDSDESHIGHLQNGEEMMVEDDNQPIPEDPQYSANSSHQGRRMSGRIQEKLSASIAQETTDAAVAIPHVPILNPPFESDDEEVKYIGAVKGQPKPGPIESVFDQINNRDHFQGNQEYRNQSISERKVDVPLFVEHQQISLSAENRATSAEWKSIFLHDFLKQLTQFICFFECSELAEIKRNIKEVMADEGKISSFQKLEIIDIRTVLGAFFFGVSRKIKSTGSNNSTMKAKDFLVTFKYFLLGLDFSELLELSTVFKRKLTSSHVQRHPPSSPKPTLHNF | not soluble
MAFTPFPPRQPTASARLPLTLMTLDDWALATITGADSEKYMQGQVTADVSQMAEDQHLLAAHCDAKGKMWSNLRLFRDGDGFAWIERRSVREPQLTELKKYAVFSKVTIAPDDERVLLGVAGFQARAALANLFSELPSKEKQVVKEGATTLLWFEHPAERFLIVTDEATANMLTDKLRGEAELNNSQQWLALNIEAGFPVIDAANSGQFIPQATNLQALGGISFKKGCYTGQEMVARAKFRGANKRALWLLAGSASRLPEAGEDLELKMGENWRRTGTVLAAVKLEDGQVVVQVVMNNDMEPDSIFRVRDDANTLHIEPLPYSLEELEHHHHHH | not soluble
MAGASHDIHPPKVEYFDLRDHTNTDPKGFVRHVDHYRVEPWGLYMARTSDHPQFHYLESWLLPDLGLRASIFHYHPYHQRDQDHYVDIGTFTRGDDVWKSEDHYLDLVVRTGRDTELLDVDELMEAHTTGLLDTATAEQAILTATTAIDGIAAHGHDLGRWLASIGMPIDWR | soluble
MAGDPMRKSKLTFIATFLILLFLSMPYKAHAASQTPITRADAEQRALTMINLNWTYSKSKNGVLPSAYSGSITAPSQFRGIENVVATGIPYCWGGFDGLNSSSYGESWTNFTDAVNKGAFVGNVKSSSYGHITGTAGLDCSGFVQATFNIKDYKLSTSTIFNQYFTKIDIKDIKHMDILNLPGNHVVIFDKWGTRNGVNGAYTYEATPDTTYGGIQGTKQYFMSMNTVSQYIPGRYVNIKEVAYVQVINASSLNIRTGPSTSYPIIGTISQNQIAEVTGYSSDGTWYKIKINGIEGYASSTYLTYVNNLEHHHHHH | not soluble
MAGDPMRMVAHRFLRPQEAHMQVLVRDNNVDQALRILKKKLQREGVFREMRLREAFEKPSIKKAREKAEAIGRQRKLARKQMQREGLLPTKPRKDKLEHHHHHH | not soluble
MAGDPMSMHPALKYIQGYPQHIVEQVAQLIANDKLIPWFEQRYPERHDIQSEKALFDFTMALKNQYMKKTAPLSKVVYDGKIHLINNALGLHSYVSRVHGNKLKAKNEIRIANVFKQAPEPLLRMLVVHELAHLKEKEHNKAFYQLCCHMEPNYHQLELDARLYMMVLELKAGKALEHHHHHH | not soluble
MAGDPMVMLNTHVVECLQACGRCAAACDYCASSCLREGHGADMARCIALDLDCAAACRLCAAMMARESEFSTHMCTLCARICEVCGDECARHEPRHCQECATACHACASACRAMARPLEHHHHHH | soluble
MAGFSVNSPKARKSDQELVAGVLEDKKQFAAIVQRYEEPLFRYIVRQGARDRELARDILQEVFIKVYLHLNDYDASLPFSSWIYRIAHNETITHFRKEKNRPLVLDKGDDDEFFGKIVDDLELSRADGQYDVSDIQTVLERLEPRYRDILVLKFFEDKSYEEISDILQMPQGTVATLINRAKKKVKASLEKN | not soluble
MAGHSHWAQIKHKKAKVDAQRGKLFSKLIREIIVATRLGGPNPEFNPRLRTAIEQAKKANMPWENIERAIKKGAGELEGEQFEEVIYEGYAPGGVAVMVLATTDNRNRTTSEVRHVFTKHGGNLGASGCVSYLFERKGYIEVPAKEVSEEELLEKAIEVGAEDVQPGEEVHIIYTVPEELYEVKENLEKLGVPIEKAQITWKPISTVQINDEETAQKVIKLLNALEELDDVQQVIANFEIPEEILQKVG | soluble
MAGLLKESMRIKMYMEGTVNGHYFKCEGEGDGNPFAGTQSMRIHVTEGAPLPFAFDILAPCCESRTFVHHTAEIPDFFKQSFPEGFTWERTTTYEDGGILTAHQDTSLEGNCLIYKVKVHGTNFPADGPVMKNKSGGWEPSTEVVYPENGVLCGRNVMALKVGDRHLICHHYTSYRSKKAVRALTMPGFHFTDIRLQMLRKKKDEYFELYEASVARYSDLPEKAN | soluble
MAGLRSFSIVMPAYNVVTQRGERIFRETLESIAASCRYLQQHFPYTPEGELILISDGSTDRTCDVAMAGWPNAVPLQLVGLPTNVGIAAARNIGVRLAKGEVIFFCDADDLYRPEHLFLALSVLNQPLPEPYAPAYFGAVRTGVYCRDRLHPYWHKSLEQTLVLNLAVRREVHEFIGGFPEDEVFRQFRYGAEDVAYAYWLHQFCHTARLEQRTVEYRRFPLEHHHHHH | soluble
MAGNANSVDEEVTRILGGIYLGGIRPIIDHRPLGAEFNITHILSVIKFQVIPEYLIRKGYTLKNIPIDDDDVTDVLQYFDETNRFIDQCLFPNEVEYSPRLVDFKKKPQRGAVFAHCQAGLSRSVTFIVAYLMYRYGLSLSMAMHAVKRKKPSVEPNENFMEQLHLFEKMGGDFVDFDNPAYKQWKLKQSIKLDPSGSELVSNSGMFKDSESSQDLDKLTEAEKSKVTAVRCKKCRTKLALSTSFIAHDPPSKESSEGHFIKRAANSHRIIDIQESQANCSHFFIEPLKWMQPELQGKQELEGKFSCPGCSSKVGGYNWKGSRCSCGKWVIPAIHLQTSKVDQFPLQSTALPNMVNFESEKVNR | not soluble
MAGRVHPRQLAFSLPHAESLSRDNFLEGPANAAGLALIDGWPEWPNRIMWLAGPEGSGKSHLAAIWAEEAGARSTTANALSAAGVPGALATGALVVEDLKAKDFDERALFHLMNLAREDGAYVLFTGRDVPAALDIELNDLRSRLRAVPVVMLLPPDDQLFRGLIVKFCADRQLTVDESVVSYLATRLERSSAAARQAVELLDSEALRLGRPVTRALAAELLRDALEHHHHHH | soluble
MAHCTEYMNAPKKLPADVAEELATTAQKLVQAGKGILAADESTQTIKKRFDNIKLENTIENRASYRDLLFGTKGLGKFISGAILFEETLFQKNEAGVPMVNLLHNENIIPGIKVDKGLVNIPCTDEEKSTQGLDGLAERCKEYYKAGARFAKWRTVLVIDTAKGKPTDLSIHETAWGLARYASICQQNRLVPIVEPEILADGPHSIEVCAVVTQKVLSCVFKALQENGVLLEGALLKPNMVTAGYECTAKTTTQDVGFLTVRTLRRTVPPALPGVVFLSGGQSEEEASVNLNSINALGPHPWALTFSYGRALQASVLNTWQGKKENVAKAREVLLQRAEANSLATYGKYKGGAGGENAGASLYEKKYVY | soluble
MAHHHHHHMADYNAAGADTAVVDDNVPPGITTKQDEIIQYVAKYVVASCDGARYQDKVRTRTKHNPYFDFLNAKHPYHQYYQYLLESYRHWMRNSEAVGAGTWGGGVDATQGQGQQQQWNEEDYYQYYGAYAGQASGIEFQGNAAGQLG | not soluble
MAHHHHHHMAPQFYLGLQMSAIIAAIPDITRAHSAVEVSEMTDLLRAGVTPYARMLDDEDFNEEFVFGMYGMALDSWQRASYEEMTKKYHLALTAIHEAINPPFKLEHFQRITRLVLARAEHVPPADYYSGHLFLRRLRRRWRRLRKIPEPAQVALVPYVDLVNHSNRPNCTIRIGPSSVLSGESAITLFTLRDVLPGQELCRHYNFALNRASALFRYGFLPFDLISIVEHDAVDEHVMKSRDMFRAVSEEQLEHQRREAEEVARLEKLFQDAKQSHGGSGAAASTPPGRQPNPSLSDRVSRREE | not soluble
MAHHHHHHMAQCLTWQVLDQRQTGECLDAVDLEALRAVIKRIDDDRDGALLHSSERTATQVNVLLDLYGHLVLFAKASQFSPFKTSTLFGIVHRVHEASIADRLSRFHSYDLLRELVVRHSVHRPPYSTMVFSVREVQDIDTYMMSTYYRHYKMYVYCFVPREVASLRTVMLNDTAEAPPAQLPPLSAAIREDAWKEKMQEKVRTLEEAEMEEQLIVSDAVSEAQKNAATLDNSRFMAGISAQLEAIRDAVSTKSSERLDLIEEKLTAIEAKVNEAQSSGNRSRQGSRGSSKRK | soluble
MAHHHHHHMASADSKAVLLSSQPGATAYSSTVAVKVQAGRMILQDGIVRPLLGSGFLFLLREGLLQDTVLTWVSSDGEEQCRVTLPPGRVKVSWVEKCRPSRVLLFDIDNGKQPLFFWMQSRSDELDEPVMHRIQHAIERNRQQAVAQHGRREIKMGTLQNILSDLWSEALAHDVNLVDILGSEKLLKALQEDPGFYTLRLKDYLPLGELDSGVPLDLKKLMNDRQVQWTAEILGTLLRHETTYSQLSASFLNGTMLWGANVTSFIVSIINIFLPQNEQQQMGESDN | not soluble
MAHHHHHHMAVLVKNYEASLVDMAVQDFIKLGIDGVYTTMKTVVSFEYIFNFTSHMRNLHKYSTNFLELQINDHNKECVTNILQNLTMENIRKSSSASIKAGFEFLNALNDDIKKKHFSENVNYMVMVTITWDIHGNSGVSPNEPFSILCYIKCLPKHGSHVQIDIMCGERKTPNIKYSNVFDVRNKMLKLKSEDSHEVVLYNEKEEITEGLTCNFFCFFNDTLYTANDELVLKGTMREQIIHICEEEGVKLKKEAISIRDVGRFEFCFICSTTRNIIPVKKIILCSENKAEFEKDVHHPVLVKLQQKLREAVEKKKEKYEAYVSAALGV | not soluble
